The subject of this data set is Bacillus subtilis DB104 (SP-AmyQ fusion secretion). As to the kind of experiment: AmyQ secretion efficiency, weighted average sort bin (1 = best secretion, 10 = worst) (bin number (weighted average, 1-10)); higher = lower secretion efficiency. The procedure, abridged:
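A B. subtilis DB104 library carrying amyE-integrated fusions of designed signal peptides to mature AmyQ was encapsulated at about 0.3 cells per ~65 nL alginate bead with fluorescein-starch and grown about 13 h at room temperature. Following nile red staining, occupied beads were flow-sorted as large particles into 10 equally populated bins by green/red fluorescence ratio, and the bin amplicons were Illumina-sequenced. The secretion score is the read-frequency-weighted average bin number normalised to beads per bin, leaving out low-abundance sequences.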

“And” between values parts separate entries of the source, which are not always exact repeats. Equal entries are not always repeated.

In turn, MGLGKKLSVAVAASFMSLSISLPGVQRAEG yielded an AmyQ secretion efficiency of 2.64.

In turn, MKNMSCKLVVSVTLFFSFLTIGPLTHAQNS displayed an AmyQ secretion efficiency of 1.52.

The sequence MRKKRVITCVMAASLTLGSLLPAGYASAAPS registered an AmyQ secretion efficiency of 2.5.

The sequence MKKAFLVFLSVVLVTTVFLVKQQESVAQGKQL returned an AmyQ secretion efficiency of 3.58.

For the sequence MRKKLKWLSTLLGFIILLFLFKYQFSNNDS, the AmyQ secretion efficiency was determined as 5.35.

MKRLLVSLRVWMVFLMNWVTPDRKTKAAAVY had an AmyQ secretion efficiency of 7.79.

MKKKLAAGLTASAIVGTTLVVVFAEAATI had an AmyQ secretion efficiency of 6.57.

The sequence MRKKRVITCVMAASLTLGSLLPAGYCTAKED returned an AmyQ secretion efficiency of 3.9.

The sequence MRKYTQIASILLSFLSVLSGGHHESKAFPV displayed an AmyQ secretion efficiency of 6.41.

MKIRKILLSSALSFGMLVISAVPALAAGT gave an AmyQ secretion efficiency of 2.24.

As to MKWYRRRQRCSICCAAVLLAGGAAQAEAV, the AmyQ secretion efficiency amounted to 4.99.

The sequence MKKRLIGFLVLVPALIKSGITLIEANKK registered an AmyQ secretion efficiency of 6.34.

For MKRIRIPMTLALSAALIIALLSFASAEEN, the AmyQ secretion efficiency turned out to be 5.6.

MKKKQVMLALTAAAGLGLTALHSAPAAKADDD yielded an AmyQ secretion efficiency of 5.2.

On to MKSKGSIMACLILFSFTITTVTFINTETISAFSN, for which the AmyQ secretion efficiency amounted to 5.25.

In turn, MKKWMAGLFLAAAVLLCLMVPQQMQGASS came in with an AmyQ secretion efficiency of 5.46.

MKQIMIFLTSFMLLAMTGQTCLAKDV yielded an AmyQ secretion efficiency of 3.75.

MKIRKILLSSALSFGMLISAVPALNAGT returned an AmyQ secretion efficiency of 6.27.

As to MHLIRAAGAVCLAVVLIAGCRFGSIIVSAEGENT, the AmyQ secretion efficiency stood at 5.81.

Sequence MKVLLSALLLLLFAFFEPSASGKKL gave an AmyQ secretion efficiency of 6.51.

In turn, MLFIFVITCVMAASLTLGSLLPAGYATAKED gave an AmyQ secretion efficiency of 4.43.

As for MKLKSKLLLSCLALSTVFVATTIVNAPTH, the AmyQ secretion efficiency came to 5.07.

Turning to MAIIIAIIAAVIVIAALITFNVINASPG, the AmyQ secretion efficiency was determined as 9.99.

MKLWMRKTLVVLFTIVTFGLVSPPAALMAATP showed an AmyQ secretion efficiency of 2.71.

Regarding MNFKKTVVSALSISALALSVSGVASSHEI, the AmyQ secretion efficiency is 5.89.

The sequence MKLRKVLTGSVLSLGLLVSASPAFATSR came in with an AmyQ secretion efficiency of 1.56.

On to MNKFLKSNFRFLLAAALGISLLASSNFAKASND, for which the AmyQ secretion efficiency was 1.03.

MMKKGLLAGALTATVLFGTCAVDVPGIISPKTAEAASR had an AmyQ secretion efficiency of 2.71.

Consider MAIIIAIIAAVIVIAALITFRRRNASPG, for which the AmyQ secretion efficiency was found to be 8.26.

For the sequence MKLKKRVSMFLVALTMCGGLFVFAAKAVKT, the AmyQ secretion efficiency amounted to 5.56.

For the sequence MFNRLFRVCFLAALIMAFTLPNSVYQQKP, the AmyQ secretion efficiency came out at 5.8.

In turn, MLKRTSFVSSLFISSAVLLSILEDDDDDAHAQSA came in with an AmyQ secretion efficiency of 5.08.

MKIRKILLSSALSFGMLLILTSISAVPALAAGT had an AmyQ secretion efficiency of 2.99.

The sequence MSIWIVLFLVLIAAAISIFVYVSTGSEK gave an AmyQ secretion efficiency of 6.85.

On to MLKKVRKRRKKLVGSTLGAFSFSSDASAKHV, for which the AmyQ secretion efficiency was 6.7.

Regarding MRKYTVIASILLSFLSVLFIVVVTSKAFPV, the AmyQ secretion efficiency stood at 5.84.

In turn, MKIVLLSALLLLLFAFEPSASGKKL returned an AmyQ secretion efficiency of 4.93.

On to MMIKQCVICLSLLVFGTRRKAHAEET, for which the AmyQ secretion efficiency came to 7.59.

MKKIMSAFVGMVLLTIFCVSTLTFSPQASAAYD displayed an AmyQ secretion efficiency of 4.76.

MFKKHTISLLIIFLLASAVLAKPMEAHTV displayed an AmyQ secretion efficiency of 2.67.

On to MRKYTVKRSILLSFLSVLSGGHHESKAFPV, for which the AmyQ secretion efficiency was 6.95.

For MLKKKWMVRRRKGCLAAGGFSYNAFATEN, the AmyQ secretion efficiency came to 7.58.

Regarding MLKKKKTQYQILVGSTLGAFSFSSDASAKHV, the AmyQ secretion efficiency was determined as 5.99.

Consider MKKGIIRFLLVSFVLFFALSSTGITGVQAAPA, for which the AmyQ secretion efficiency was found to be 1.83.

As for MGLGKKLMVAVAAIFMMLMIFLPGVQAAEG, the AmyQ secretion efficiency was found to be 1.54.

MLTKRLLTIYIMLLGLIAWFPGAAQAEDE displayed an AmyQ secretion efficiency of 3.66.

MKSKGSIMACLILFSFTITTFINTETISCFSN displayed an AmyQ secretion efficiency of 7.73.

For MKRIRIPMTLALGAALTISFASAEEN, the AmyQ secretion efficiency was 6.71.

For the sequence MKKIVSILFMFGLVMGFSQFQPSTVFAAED, the AmyQ secretion efficiency worked out at 2.13.

With MTKRGIQAFAGGIILATAVLAAVFYLTDEDQAAAV, the AmyQ secretion efficiency was 5.97 and 6.45.

In turn, MKRLLVSLRVWMVFLMNWVTPDRKTAADAVY gave an AmyQ secretion efficiency of 5.95.

MKKRKRRNFKRFIAAFLVLALMISLVPADVLKKST gave an AmyQ secretion efficiency of 6.16.

Sequence MRPVFPLILSAVLFLSCFFGARQTEPSASKR registered an AmyQ secretion efficiency of 5.61.

In turn, MKRIRIPMTLALGAALTIAPLVFASAEEN gave an AmyQ secretion efficiency of 4.55.

As to MNKLKRLSMLTVMIASVFIFSSHALAADD, the AmyQ secretion efficiency was 4.21.

Turning to MAIIIAIIAAVIVIAALITFNVRNADDD, the AmyQ secretion efficiency worked out at 7.51.

For “MMKKGSLFFLLAGALTATVLFGTCAVDVPGIISPKTAEAASQ”, the AmyQ secretion efficiency was found to be 3.32.

For the sequence MMIKQCVICLSLLVFGTTAAHSEET, the AmyQ secretion efficiency stood at 4.24.

MKRSISKRKRCKKITLLTMGGMIASPASAAGT yielded an AmyQ secretion efficiency of 6.02.

In the case of MKKKKAAAVLLSLGLVFGFSYGAGHVAEAKTK, the AmyQ secretion efficiency stood at 1.65.

Regarding MKKVMLATALFLGLTRRKANAADL, the AmyQ secretion efficiency is 7.36.

Take MKRIRIPMTLALGAALTIAPLSFISAEEN: the AmyQ secretion efficiency came to 3.01.

Regarding MGMKKKLSLGVASAALGLALVGRRKRKKTWAAFN, the AmyQ secretion efficiency was 6.59.

In the case of MKVLLSALLLLLFAFFTSFTLTLFEPSASGKKL, the AmyQ secretion efficiency is 7.36.

With MRFTKVVGFLSVLGLAAVFPLTAQREKA, the AmyQ secretion efficiency turned out to be 5.37.

The sequence MRMLWRSKRRCKLALTLAPCAQAAEP yielded an AmyQ secretion efficiency of 7.06.

Turning to MRKNRSSMSFTLILALFVLSLGLLSFMVTPVSAASK, the AmyQ secretion efficiency is 1.45.

Turning to MTGYYKVLTMCFLGLILFVPTALADNS, the AmyQ secretion efficiency is 1.69.

MTRTGAIIAAVIVIAALITFNVRNASPG gave an AmyQ secretion efficiency of 7.74.

Regarding MSSKAWFLPLVCVLLISGWLAPAASASAQTT, the AmyQ secretion efficiency worked out at 1.72.

Sequence MRKKTKNRLISSQKSTVVISSLLFPGAAGASSK displayed an AmyQ secretion efficiency of 8.12.

On to MKRFLIGAGVAAVILSGWFIADHQFHSQEM, for which the AmyQ secretion efficiency was determined as 5.93.

MAIIIAIIAAVIVIAALITFEVRNASPG came in with an AmyQ secretion efficiency of 5.68.

For MLKKIALTLCPAIVGSLLFFTVAPASAHVS, the AmyQ secretion efficiency turned out to be 3.73.

MKKRLIAPMLLSAASLAFFAMSGSAQYAAY came in with an AmyQ secretion efficiency of 6.56.

MKKGIIRFLLVSFVLFFALSTGITGVQAAPD gave an AmyQ secretion efficiency of 2.73.

As to MKTKTLFIFSAILTLSIRKPNRTFAQTA, the AmyQ secretion efficiency was determined as 6.8.

As to MKKRFSLIMMTGLLFGLTSPAFAASN, the AmyQ secretion efficiency was 2.36.

As for MKKQIITATTAVVLGSTLFAGAASMQSI, the AmyQ secretion efficiency was determined as 3.83.

The sequence MKKAKRVFLSVVLVTTVFLVKQQESVAQAKQL returned an AmyQ secretion efficiency of 3.28.

Values taken from the supplement of paper PMC9942255.
